From article doi:10.1101/2020.05.27.119552

Molecular target: dHtt-eGFP fusion protein (Drosophila Huntingtin with a C-terminal eGFP tag) (Drosophila)
Assay: affinity purification with mass spectrometry

- stoichiometry N: 1 molar ratio
Substance: CG8134/dHap40 (Drosophila HAP40), endogenous ~40 kDa protein (from UniProt Q9VXR6 1-345) (natural protein)
